Laboratory results reported in IntAct's records for PubMed 18434552.

B1: Tyrosine-protein phosphatase non-receptor type 23 (Homo sapiens), Q9H3S7 (parent)
chain: MEAVPRMPMIWLDLKEAGDFHFQPAVKKFVLKNYGENPEAYNEELKKLELLRQNAVRVPRDFEGCSVLRKYLGQLHYLQSRVPMGSGQEAAVPVTWTEIFSGKSVAHEDIKYEQACILYNLGALHSMLGAMDKRVSEEGMKVSCTHFQCAAGAFAYLREHFPQAYSVDMSRQILTLNVNLMLGQAQECLLEKSMLDNRKSFLVARISAQVVDYYKEACRALENPDTASLLGRIQKDWKKLVQMKIYYFAAVAHLHMGKQAEEQQKFGERVAYFQSALDKLNEAIKLAKGQPDTVQDALRFTMDVIGGKYNSAKKDNDFIYHEAVPALDTLQPVKGAPLVKPLPVNPTDPAVTGPDIFAKLVPMAAHEASSLYSEEKAKLLREMMAKIEDKNEVLDQFMDSMQLDPETVDNLDAYSHIPPQLMEKCAALSVRPDTVRNLVQSMQVLSGVFTDVEASLKDIRDLLEEDELLEQKFQEAVGQAGAISITSKAELAEVRREWAKYMEVHEKASFTNSELHRAMNLHVGNLRLLSGPLDQVRAALPTPALSPEDKAVLQNLKRILAKVQEMRDQRVSLEQQLRELIQKDDITASLVTTDHSEMKKLFEEQLKKYDQLKVYLEQNLAAQDRVLCALTEANVQYAAVRRVLSDLDQKWNSTLQTLVASYEAYEDLMKKSQEGRDFYADLESKVAALLERTQSTCQAREAARQQLLDRELKKKPPPRPTAPKPLLPRREESEAVEAGDPPEELRSLPPDMVAGPRLPDTFLGSATPLHFPPSPFPSSTGPGPHYLSGPLPPGTYSGPTQLIQPRAPGPHAMPVAPGPALYPAPAYTPELGLVPRSSPQHGVVSSPYVGVGPAPPVAGLPSAPPPQFSGPELAMAVRPATTTVDSIQAPIPSHTAPRPNPTPAPPPPCFPVPPPQPLPTPYTYPAGAKQPIPAQHHFSSGIPAGFPAPRIGPQPQPHPQPHPSQAFGPQPPQQPLPLQHPHLFPPQAPGLLPPQSPYPYAPQPGVLGQPPPPLHTQLYPGPAQDPLPAHSGALPFPSPGPPQPPHPPLAYGPAPSTRPMGPQAAPLTIRGPSSAGQSTPSPHLVPSPAPSPGPGPVPPRPPAAEPPPCLRRGAAAADLLSSSPESQHGGTQSPGGGQPLLQPTKVDAAEGRRPQALRLIERDPYEHPERLRQLQQELEAFRGQLGDVGALDTVWRELQDAQEHDARGRSIAIARCYSLKNRHQDVMPYDSNRVVLRSGKDDYINASCVEGLSPYCPPLVATQAPLPGTAADFWLMVHEQKVSVIVMLVSEAEMEKQKVARYFPTERGQPMVHGALSLALSSVRSTETHVERVLSLQFRDQSLKRSLVHLHFPTWPELGLPDSPSNLLRFIQEVHAHYLHQRPLHTPIIVHCSSGVGRTGAFALLYAAVQEVEAGNGIPELPQLVRRMRQQRKHMLQEKLHLRFCYEAVVRHVEQVLQRHGVPPPCKPLASASISQKNHLPQDSQDLVLGGDVPISSIQATIAKLSIRPPGGLESPVASLPGPAEPPGLPPASLPESTPIPSSSPPPLSSPLPEAPQPKEEPPVPEAPSSGPPSSSLELLASLTPEAFSLDSSLRGKQRMSKHNFLQAHNGQGLRATRPSDDPLSLLDPLWTLNKT
partner: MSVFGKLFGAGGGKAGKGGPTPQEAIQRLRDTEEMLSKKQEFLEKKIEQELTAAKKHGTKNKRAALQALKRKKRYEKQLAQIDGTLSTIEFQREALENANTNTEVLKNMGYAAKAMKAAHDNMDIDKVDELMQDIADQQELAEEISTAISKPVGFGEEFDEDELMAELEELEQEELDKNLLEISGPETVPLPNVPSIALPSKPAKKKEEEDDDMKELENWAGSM

Variants of: B1
Settings: with chm4b_human CHMP4B

Question: How did the “effect of a mutation on the interaction” value turn out when L202D was run?
Answer: disrupting interaction

Question: For L202D;I206D, which “effect of a mutation on the interaction” value is on record?
Answer: disrupting interaction
